Data reported in article PMC11748958.

Target: human ERG potassium channel (human) (UniProt Q12809)
Sequence of UniProt Q12809 (Q12809 whole entry): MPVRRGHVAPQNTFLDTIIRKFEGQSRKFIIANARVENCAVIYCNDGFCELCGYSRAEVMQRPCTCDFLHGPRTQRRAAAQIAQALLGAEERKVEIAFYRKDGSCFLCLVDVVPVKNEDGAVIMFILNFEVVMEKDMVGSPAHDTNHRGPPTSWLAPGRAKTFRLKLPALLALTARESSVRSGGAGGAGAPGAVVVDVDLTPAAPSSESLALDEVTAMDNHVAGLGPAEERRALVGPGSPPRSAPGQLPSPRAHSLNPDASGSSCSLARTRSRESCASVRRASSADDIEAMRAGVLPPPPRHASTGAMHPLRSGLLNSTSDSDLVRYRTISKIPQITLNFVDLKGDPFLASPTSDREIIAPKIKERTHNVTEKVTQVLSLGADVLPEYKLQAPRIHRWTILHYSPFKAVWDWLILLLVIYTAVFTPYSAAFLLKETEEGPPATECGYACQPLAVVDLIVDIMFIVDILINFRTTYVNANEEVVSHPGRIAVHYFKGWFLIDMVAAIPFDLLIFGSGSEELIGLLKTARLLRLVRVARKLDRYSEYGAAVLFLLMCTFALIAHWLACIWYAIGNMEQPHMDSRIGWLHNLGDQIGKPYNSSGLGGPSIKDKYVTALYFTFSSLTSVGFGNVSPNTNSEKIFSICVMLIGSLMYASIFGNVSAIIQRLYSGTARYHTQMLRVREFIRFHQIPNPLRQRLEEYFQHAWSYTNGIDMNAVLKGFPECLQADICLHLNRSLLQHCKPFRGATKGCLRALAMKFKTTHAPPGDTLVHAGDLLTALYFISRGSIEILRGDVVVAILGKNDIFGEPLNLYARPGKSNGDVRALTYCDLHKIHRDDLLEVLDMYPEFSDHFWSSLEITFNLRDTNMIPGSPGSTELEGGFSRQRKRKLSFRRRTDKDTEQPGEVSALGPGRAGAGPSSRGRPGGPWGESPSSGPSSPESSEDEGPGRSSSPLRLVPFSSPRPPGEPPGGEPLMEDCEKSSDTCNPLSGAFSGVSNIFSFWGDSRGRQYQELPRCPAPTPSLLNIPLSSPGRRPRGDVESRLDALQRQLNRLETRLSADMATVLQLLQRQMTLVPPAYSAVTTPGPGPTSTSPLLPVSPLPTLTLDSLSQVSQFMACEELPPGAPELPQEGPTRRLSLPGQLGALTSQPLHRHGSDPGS

B1: recombinant Phα1β (peptide)
chain: MACIPRGEICTDDCECCGCDNQCYCPPGSSLGIFKCSCAHANKYFCNRKKEKCKKA
IC50 of inhibition of hERG channel activity, thallium flux (FLIPR Potassium Assay) in HEK293-hERG cells: > 900 pmol
percent inhibition of hERG channel activity, thallium flux (FLIPR Potassium Assay) in HEK293-hERG cells, Phα1β 56-900 pM for 30 minutes; highest value at 900 pM: 13.6%
